Patent publication US20230374148A1, “BINDING MOLECULES THAT MULTIMERISE CD45” (UCB BIOPHARMA SRL, priority 2020, published 2023)

What was measured:
[1] = tested on: CD34+ stem cells in PBMCs; assay: Apoptosis of peripheral blood haematopoietic stem cells in PBMCs; format: cell-based, human; details: 24 hrs, 200-0.00632 nM
Description: Human whole blood (K2EDTA tubes) was received from one donor (#PR20T386505, from Cambridge Bioscience, UK). PBMCs were isolated from whole blood using pre-filled LeucoSep tubes (Greiner). Whole blood was layered on to the LeucoSep filter and tubes spun (800 g, 15 min, slow acceleration and deceleration, at RT). The buffy coat was extracted and cells washed twice in sterile PBS. PBMC were resuspended in 50 ml complete media (RPMI 1640+2 mM GlutaMAX+1% Pen/Strep, all previously supplied by Invitrogen, +10% Fetal Bovine Serum (FBS), Sigma Aldrich). Cells were counted using a ChemoMetec NucleoCounter NC-3000. 1×10^6 cells per well in 80 μl were then added to each well of a Corning Costar 96-well, cell culture treated, U-shaped-bottom microplate (cat no. 07-200-95).
In a Greiner 96-well non-binding microplate, Fab-X and Fab-Y combination 6294-X/4133-Y, was added to complete media to give a Fab-KD-Fab concentration of 1000 nM. Similarly, 1000 nM stocks of 4133-6294 BYbe and NegCtrl BYbe were prepared in complete media. The microplate was incubated for 1 hr at 37° C., 5% CO2. Following the incubation, Fab-KD-Fab and BYbe reagents were then serially diluted in complete media in a half log dilution series, 7 times to produce an 8-point dose curve. […]
Cells were analysed using the Bio-Rad ZE5 Cell Analyzer. […]

[2] = tested on: M1 macrophages; assay: Caspase-3/7 induction, IncuCyte, M1; format: cell-based, human; details: over 6 days, BYbe 250-2 nM, Camptothecin, Staurosporine 5 μM
Description: Human PBMC derived from blood leukocyte platelet-apheresis cones (NHSBT Oxford) were banked as frozen aliquots. Prior to an assay being performed, 2 vials of frozen cells, each containing 5×10^7 cells in 1 ml, were thawed in a 37° C. water bath and then added to 50 ml complete media (RPMI 1640+2 mM GlutaMAX+1% Pen/Strep, all previous supplied by Invitrogen, +10% Fetal Bovine Serum (FBS), Sigma Aldrich). Cells were spun (500 g, 5 min, at RT) and re-suspended in 30 ml complete media to wash and spun again. Cells were resuspended in 20 ml MACS buffer (PBS, pH 7.2, 0.5% bovine serum albumin (BSA), and 2 mM EDTA, Sigma Aldrich) and counted on a ChemoMetec NucleoCounter NC-3000 to determine concentration and viability. PBMCs from one donor (UCB-Cones 802) was used in this assay. Monocyte isolation was performed using the Pan Monocyte Isolation Kit (Miltenyi Biotec, cat no. 130-096-537) and LS columns (Miltenyi Biotec, cat no 130-042-401) according to manufacturer's instructions. 100 μl of cells were removed and stored on ice to check monocyte purity post isolation. Isolated cells were stained with BV421 mouse anti-human CD14 (BD Biosciences, cat no. 563743) to check for purity of monocytes using FACS. M-CSF (Sigma Aldrich, cat no. SRP3110) and GM-CSF (R&D Systems, cat no. 215-GM/CF) were prepared at 100 μg/ml. Cells were prepared in M1 media (complete media+50 ng/ml GM-CSF) or M2 media (complete media+50 ng/ml M-CSF) at a concentration of 2.5×10^5 cells/ml. 200 μl cells were plated into two Corning 96 well Black polystyrene microplates (Sigma Aldrich) and incubated at 37° C., 5% CO2. Following a 3-day incubation at 37° C., 5% CO2, the plate was spun (500 g, 5 min, RT), buffer was aspirated, the cells were washed once with PBS and then resuspended in 200 μL of M1 media or M2 media. […] The caspase dye was measured with the green laser (350 ms) and the cytotox dye was measured with a red laser (650 ms). The green dye signal was analysed using Incucyte® Zoom2016B. […]

B1: 4133-6294 BYbe: anti-CD45 BYbe (Fab-scFv): 4133 Fab HC-G4S linker-6294 scFv heavy chain paired with 4133 light chain (antibody)
heavy: QEQLVESGGGLVQPEGSLTLTCTASGFSFSGNYYMCWVRQAPGKGLEWIGCLYTGSSGSTYYASWAKGRFTISKTSSTTVTLQMTSLTAADTATYFCARDLGYEIDGYGGLWGQGTLVTVSSGQPKAPSVFPLAPCCGDTPSSTVTLGCLVKGYLPEPVTVTWNSGTLTNGVRTFPSVRQSSGLYSLSSVVSVTSSSQPVTCNVAHPATNTKVDKTVAPSTCSKPGGGGSGGGGSEVQLVESGAELARPGASVKMSCKASGYTFTSYTMHWVKQRPGQCLEWIGYINPSSGYTEYNQKFKDKTTLTADKSSSTAYLQLSSLTSEDSAVYYCARVGDGFYPSWLAYWGQGTLVTVSSGGGGSGGGGSGGGGSGGGGSDIQMTQSPKFLLVSAGDRVTITCKASQSVRNDVAWYQQKPGQSPKLLIFYASKRYTGVPDRFTGSGYGTDFTFTISTVQAEDLAVYFCQQDYSSPTTFGCGTKLEIK
light: AQVLTQTPSPVSAVVGGTVSISCQASQSVYNNNNLSWYQQKPGQPPKLLIYDASKLASGVPSRFKGSGSGTQFTLTISGVQCDDAATYYCLGGYYSSGWYFAFGGGTKVVVKRTPVAPTVLIFPPAADQVATGTVTIVCVANKYFPDVTVTWEVDGTTQTTGIENSKTPQNSADCTYNLSSTLTLTSTQYNSHKEYTCKVTQGTTSVVQSFNRGDC
reductions in CD34+ stem cells [1]: 53%
reductions in total lymphocytes [1]: 98%
levels of Caspase-3/7 [2]: in-line with NegCtrl BYbe-treated and untreated macrophages
